Measured values as given in patent US5312736.

Target: factor Xa

Chain of Ser-(Glu15-Thr161)-EPI (chain): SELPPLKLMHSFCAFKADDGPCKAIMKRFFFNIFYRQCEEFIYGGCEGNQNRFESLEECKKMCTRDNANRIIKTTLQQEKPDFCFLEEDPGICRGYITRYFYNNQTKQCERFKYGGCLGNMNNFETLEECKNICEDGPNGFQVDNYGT
Chain of Ser-(Thr88-Thr161)-EPI (chain): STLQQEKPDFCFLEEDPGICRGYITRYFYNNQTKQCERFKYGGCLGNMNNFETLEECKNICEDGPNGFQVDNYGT
Chain of native extrinsic pathway inhibitor (EPI), entire EPI protein expressed from pCMVEPIhGH (chain): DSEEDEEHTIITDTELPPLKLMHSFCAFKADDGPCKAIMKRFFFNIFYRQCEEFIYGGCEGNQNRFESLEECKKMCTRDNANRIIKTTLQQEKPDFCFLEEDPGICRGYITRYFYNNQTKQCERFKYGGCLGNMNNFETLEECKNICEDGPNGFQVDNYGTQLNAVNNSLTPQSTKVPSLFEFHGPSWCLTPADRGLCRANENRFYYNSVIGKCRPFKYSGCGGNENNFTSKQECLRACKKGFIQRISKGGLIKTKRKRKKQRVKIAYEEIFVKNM

Row | anti-Xa activity [U/ml], chromogenic assay (FXa, substrate S2222) [U/ml] | Substance
1 | 5.6 | Ser-(Glu15-Thr161)-EPI
2 | 0.15 | Ser-(Thr88-Thr161)-EPI
3 | 7.6 | native extrinsic pathway inhibitor (EPI), entire EPI protein expressed from pCMVEPIhGH
